Assay [1] addresses T1, recombinant human HGF (human, UniProt P14210 32-728).
T1 construct: also called Hepatocyte Growth Factor; Scatter Factor
Description: SPR (Biacore T100), human HGF immobilised on CM5 chip, antibody as analyte, 1:1 binding model, 25 C. (In general: Surface plasmon resonance follows binding to a sensor surface in real time, without labels.)

The target of assay [2] is T1, recombinant human HGF. Description: ELISA on plate-coated recombinant human HGF, detection with anti-human kappa light chain peroxidase conjugate, Abs 490 nm. In general terms: An ELISA detects its analyte on a solid surface through an enzyme-linked reagent.
Assay [3] concerns the target T1, recombinant human HGF. Description: SPR (Biacore T100), human HGF immobilised on CM5 chip, antibody as analyte, bivalent analyte model, 25 C.
The target in assay [4] is T1, recombinant human HGF. Description: cell-based or functional assay.
In assay [5] the target is T1, recombinant human HGF. Description: cell-based or functional assay. On the set-up: unit not given beside the values.
Another assay addresses T2, human VEGF (human, UniProt P15692-4 27-191, limits assumed).
T2 construct: The background says that VEGF-A isoforms form homodimers
Put plainly: SPR (Biacore T100), antibody captured on Protein A C1 chip, human VEGF as analyte.

Three molecules from US20120177651A1 (published 2012) can be followed below.

The koff is the first-order rate constant of dissociation. What is called kon is the rate constant with which the complex forms. In general, EC50 (read off the curve) refers to the concentration at which the effect is half-maximal.

T1 sequence (P14210 32-728 limits assumed): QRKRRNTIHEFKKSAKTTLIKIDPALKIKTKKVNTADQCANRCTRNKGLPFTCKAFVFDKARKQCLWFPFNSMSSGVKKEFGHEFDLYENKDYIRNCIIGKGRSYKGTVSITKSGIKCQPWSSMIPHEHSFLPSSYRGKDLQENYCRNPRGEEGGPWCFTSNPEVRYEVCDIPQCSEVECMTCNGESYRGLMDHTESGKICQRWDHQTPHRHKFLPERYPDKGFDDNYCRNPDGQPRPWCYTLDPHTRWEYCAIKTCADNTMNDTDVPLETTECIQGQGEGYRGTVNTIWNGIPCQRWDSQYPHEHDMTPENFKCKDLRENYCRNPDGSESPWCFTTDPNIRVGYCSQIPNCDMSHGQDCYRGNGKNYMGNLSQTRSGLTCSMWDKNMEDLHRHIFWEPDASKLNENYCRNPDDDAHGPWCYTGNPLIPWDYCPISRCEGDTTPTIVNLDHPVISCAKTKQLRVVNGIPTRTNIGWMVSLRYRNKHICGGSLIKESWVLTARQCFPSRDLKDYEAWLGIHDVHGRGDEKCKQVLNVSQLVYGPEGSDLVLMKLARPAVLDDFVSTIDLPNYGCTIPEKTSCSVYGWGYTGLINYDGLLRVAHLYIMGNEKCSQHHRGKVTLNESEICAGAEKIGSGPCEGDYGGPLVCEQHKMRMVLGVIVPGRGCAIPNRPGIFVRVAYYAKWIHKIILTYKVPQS
T2 sequence (P15692 other isoform, or with tags, fused parts or gaps limits assumed): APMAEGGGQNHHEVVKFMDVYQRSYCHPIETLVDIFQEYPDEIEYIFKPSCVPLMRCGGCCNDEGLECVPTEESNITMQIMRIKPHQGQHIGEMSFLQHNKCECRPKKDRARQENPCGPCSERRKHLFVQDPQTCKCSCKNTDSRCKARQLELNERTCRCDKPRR

B1: BPC2015 (antibody, human IgG1, kappa, V domains shown)
VH: EVQLVQSGAEVKKPGASVKVSCKVSGYTFSGNWIEWVRQAPGKGLEWIGEILPGSGNTNYNEKFKGKATMTADTSTDTAYMELSSLRSEDTAVYYCARGGHYYGSSWDYWGQGTLVTVSS
VL: DIVMTQSPSSLSASVGDRVTITCKASENVVTYVSWYQQKPGKAPKLLIYGASNRYTGVPDRFSGSGSGTDFTLTISSLQPEDFATYYCGQGYSYPYTFGQGTKLEIKR
notes: Full human IgG1 (Fc wild type) / kappa anti-HGF antibody, expressed in HEK 293-6E cells; also called HuL2G7; anti-HGF mAb HuL2G7
Regarding B1, in the assay with recombinant human HGF [1], the Kd worked out at 0.44 nM, the koff is 8.19e-05 s⁻¹ and the kon is 186000 M⁻¹ s⁻¹. The “EC50 (read off the curve)” value with recombinant human HGF [2] was roughly 0.7 nM. Also, in the assay with recombinant human HGF [3], the Kd stood at 0.58 nM, the koff amounted to 0.000132 s⁻¹ and the association rate constant (kon) was 228000 M⁻¹ s⁻¹. Also, in the assay with recombinant human HGF [4], the “IC50, % phospho AKT in Bx-PC3 cells (MSD, mean of two experiments)” value came to 0.63 nM; the “IC50, % phospho ERK in Bx-PC3 cells (MSD, mean of two experiments)” value came to 0.98 nM; the “IC50, % phospho MET in Bx-PC3 cells (MSD, mean of two experiments)” value worked out at 0.4 nM; the “IC50, Bx-PC3 cell migration with 25 ng/ml HGF (Oris, mean of three experiments)” value is 0.33 nM. Also, in the assay with recombinant human HGF [5], the “IC50, MET phosphorylation in Bx-PC3 cells (mean of three experiments)” value (“IC50, MET phosphorylation” below) is 4.2.

B2: BPC2014 (antibody, human IgG1, kappa, V domains shown)
VH: QVQLVQPGAEVKKPGTSVKLSCKASGYTFTTYWMHWVRQAPGQGLEWIGEINPTNGHTNYNQKFQGRATLTVDKSTSTAYMELSSLRSEDTAVYYCARNYVGSIFDYWGQGTLVTVSS
VL: DIVMTQSPDSLAMSLGERVTLNCKASENVVSYVSWYQQKPGQSPKLLIYGASNRESGVPDRFSGSGSATDFTLTISSVQAEDVADYHCGQSYNYPYTFGQGTKLEIKR
notes: Full human IgG1 (Fc wild type) / kappa anti-HGF antibody, expressed in HEK 293-6E cells; also called HE2B8-4; anti-HGF mAb LRMR2B8
As for B2, the binding result with human VEGF is listed as “no binding (tested: human VEGF up to 256 nM)”. In the assay with recombinant human HGF [1], the Kd amounted to 1.54 nM, the koff came to 0.00011 s⁻¹ and the kon is 71400 M⁻¹ s⁻¹. Also, the “EC50 (read off the curve)” value with recombinant human HGF [2] is roughly 1 nM. Besides, in the assay with recombinant human HGF [3], the Kd came out at 1.62 nM, the dissociation rate constant (koff) was found to be 0.000204 s⁻¹ and the kon amounted to 126000 M⁻¹ s⁻¹. Moreover, the “IC50, MET phosphorylation” value in the assay with recombinant human HGF [5] amounted to 4.5.

B3: BPC2013 (antibody, human IgG1, kappa, V domains shown)
VH: QVQLQESGPGLVKPSETLSLTCTVSGGSISIYYWSWIRQPPGKGLEWIGYVYYSGSTNYNPSLKSRVTISVDTSKNQFSLKLNSVTAADTAVYYCARGGYDFWSGYFDYWGQGTLVTVSS
VL: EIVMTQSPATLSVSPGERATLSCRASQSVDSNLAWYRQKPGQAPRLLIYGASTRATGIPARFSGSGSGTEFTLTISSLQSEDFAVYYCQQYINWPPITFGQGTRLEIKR
notes: Full human IgG1 (Fc wild type) / kappa anti-HGF antibody, expressed in HEK 293-6E cells; also called 2.12.1; anti-HGF mAb 2.12.1
Regarding B3, the binding result with human VEGF was “no binding (tested: human VEGF up to 256 nM)”. For the same molecule, in the assay with recombinant human HGF [1], the Kd stood at 0.88 nM, the koff worked out at 0.000122 s⁻¹ and the on-rate constant (kon) amounted to 140000 M⁻¹ s⁻¹. The “EC50 (read off the curve)” value with recombinant human HGF [2] was roughly 1 nM. For the same molecule, in the assay with recombinant human HGF [3], the Kd stood at 0.83 nM, the dissociation rate constant (koff) worked out at 0.000202 s⁻¹ and the kon was 242000 M⁻¹ s⁻¹. In the assay with recombinant human HGF [5], the “IC50, MET phosphorylation” value came to 3.6.
